From patent US9533055 (ARMAGEN TECHNOLOGIES, dated 2017) come the findings set out here.

For this experiment, the target named is T1, HIR extracellular domain (ECD) (human, UniProt P06213 28-956, limits assumed).
T1 construct: extracellular domain; also called HIR ECD; human insulin receptor ECD
Kind of experiment: ELISA, plated HIR ECD, biotinylated goat anti-human IgG detection. As for the experimental part: The affinity of the fusion protein for the HIR extracellular domain (ECD) was determined with an ELISA using the lectin affinity purified HIR ECD. CHO cells permanently transfected with the HIR ECD were grown in serum free media (SFM), and the HIR ECD was purified with a wheat germ agglutinin affinity column. The HIR ECD (0.2 μg/well) was plated on Immulon 2 high binding 96-well plates, and the binding of the chimeric HIRMAb, the HIRMAb-TNFR fusion protein, or human IgG1 to the HIR ECD was detected with a biotinylated goat anti-human IgG (H+L) antibody (0.3 μg/well), and the avidin biotinylated peroxidase detection system.
(In general: ELISA stands for enzyme-linked immunosorbent assay.)

B1: chimeric HIRMAb (antibody, V domains shown)
VH: QVQLQQSGPELVKPGALVKISCKASGYTFTNYDIHWVKQRPGQGLEWIGWIYPGDGSTKYNEKFKGKATLTADKSSSTAYMHLSSLTSEKSAVYFCAREWAYWGQGTLVTVSA
VL: DIQMTQSPSSLSASLGERVSLTCRASQDIGGNLYWLQQGPDGTIKRLIYATSSLDSGVPKRFSGSRSGSDYSLTISSLESEDFVDYYCLQYSSSPWTFGGGTKMEIKR
notes: Human IgG1/kappa constant regions; also called MAb to HIR
B1: it took 0.44 nM to reach a half-maximal effect (EC50).

A word on the EC50: it is the concentration at which the effect is half-maximal. Read a low EC50 as an effect from little substance.
